Assay results from publication PMC7817217 (Proceedings of the National Academy of Sciences of the …, 2020).

Target: SARS-CoV-2 spike protein receptor binding domain (RBD) (SARS-CoV-2, UniProt P0DTC2 319-541)
Assay: SPR

Binder | Kd
bACE2-Rm (H41-Q42) mutant, mouse Fc tagged (Fc fusion) STTEDEAKKFLDKFNSKAEDLSHQSSLASWDYNTNISDENVQKMDEAGAKWSAFYEEQSKLAKNYPLEEIQNDTVKRQLQILQQSGSPVLSEDKSKRLNSILNAMSTIYSTGKVCKPNNPQECLLLEPGLDNIMGTSKDYNERLWAWEGWRAEVGKQLRPLYEEYVVLKNEMARGYHYEDYGDYWRRDYETEESSGPGYSRDQLMKDVDRIFTEIKPLYEHLHAYVRAKLMDTYPLHISPTGCLPAHLLGDMWGRFWTNLYPLTVPFGQKPNIDVTDAMLNQGWDANRIFKEAEKFFVSVSLPKMTEGFWNKSMLTEPGDGRKVVCHPTAWDLGKGDFRIKMCTKVTMEDFLTAHHEMGHIQYDMAYASQPYLLRNGANEGFHEAVGEVMSLSVATPKHLKTMGLLSPDFREDDETEINFLLKQALNIVGTLPFTYMLEKWRWMVFKGEIPKEEWMKKWWEMKREIVGVVEPVPHDETYCDPASLFHVANDYSFIRYYTRTIFEFQFHEALCRIAQHNGPLHKCDISNSTDAGKKLHQMLSVGKSQAWTKTLEDIVDSRNMDVGPLLRYFKPLYTWLQEQNRKSYVGWNTDWSPYAD | 2220 nM
bACE2-Rm (Y41-Q42) mutant, mouse Fc tagged (Fc fusion) STTEDEAKKFLDKFNSKAEDLSYQSSLASWDYNTNISDENVQKMDEAGAKWSAFYEEQSKLAKNYPLEEIQNDTVKRQLQILQQSGSPVLSEDKSKRLNSILNAMSTIYSTGKVCKPNNPQECLLLEPGLDNIMGTSKDYNERLWAWEGWRAEVGKQLRPLYEEYVVLKNEMARGYHYEDYGDYWRRDYETEESSGPGYSRDQLMKDVDRIFTEIKPLYEHLHAYVRAKLMDTYPLHISPTGCLPAHLLGDMWGRFWTNLYPLTVPFGQKPNIDVTDAMLNQGWDANRIFKEAEKFFVSVSLPKMTEGFWNKSMLTEPGDGRKVVCHPTAWDLGKGDFRIKMCTKVTMEDFLTAHHEMGHIQYDMAYASQPYLLRNGANEGFHEAVGEVMSLSVATPKHLKTMGLLSPDFREDDETEINFLLKQALNIVGTLPFTYMLEKWRWMVFKGEIPKEEWMKKWWEMKREIVGVVEPVPHDETYCDPASLFHVANDYSFIRYYTRTIFEFQFHEALCRIAQHNGPLHKCDISNSTDAGKKLHQMLSVGKSQAWTKTLEDIVDSRNMDVGPLLRYFKPLYTWLQEQNRKSYVGWNTDWSPYAD | 250 nM
